Reference: patent publication US20050170334A1

B1: L66 (antibody, V domains shown)
VH: EVQLVESGGGVVRPGGSLRLSCAASGFTFDDYGMSWVRQAPGKGLEWVSGINWNGGSTGYADSVKGRFTISRDNAKNSLYLQMNSLRAEDTALYYCARDRVTMVRGVIMDYYGMDVWGQGTTVTVSS
VL: QTVVTQEPSLTVSPRGTVTLTCSSSTGAVTSGYYPGWFQLKPGQAPMSLIYSARKKHSWTPARFSGSLLGGKAALTLSGVQPEDEAEYYCLLYYGGAYVFGTGTKVTVLG
B2: C40G1 (antibody, V domains shown)
VH: QLQLQESGPGLVKPSETLSLTCTVSGGSISSSFYYCGWIRQPPGKGLEWIGSIYYRGSTYYNPSLKSRVTISVDTSKNQFSLKLSSVTAADTAVYYCARRVTMVRGVKGDYFDYWGQGTLVTVSS
VL: DIQMTQSPSSLSASVGDRVTITCRASQGISSWLAWYQQKPEKVPKSLIYAASSLQSGVPSRFSGSGSGTDFTLTISSLQPEDFATYYCQQYNYYPLTFGGGTKVEIKR

How the values were obtained:
NM16 (influenza A virus) = test: ELISA, peptide coated, antibody 10 µg/ml
[1] = target: M2 peptide (extracellular 23-amino-acid M2 peptide) (influenza A virus); test: ELISA, peptide coated, antibody 10 µg/ml
NM17 (influenza A virus) = test: ELISA, peptide coated, antibody 10 µg/ml
NM13 (influenza A virus) = test: ELISA, peptide coated, antibody 10 µg/ml
CM13 (influenza A virus) = test: ELISA, peptide coated, antibody 10 µg/ml
NM11 (influenza A virus) = test: ELISA, peptide coated, antibody 10 µg/ml
CM16 (influenza A virus) = test: ELISA, peptide coated, antibody 10 µg/ml
CM17 (influenza A virus) = test: ELISA, peptide coated, antibody 10 µg/ml
NM12 (influenza A virus) = test: ELISA, peptide coated, antibody 10 µg/ml
CM14 (influenza A virus) = test: ELISA, peptide coated, antibody 10 µg/ml
CM15 (influenza A virus) = test: ELISA, peptide coated, antibody 10 µg/ml
CM12 (influenza A virus) = test: ELISA, peptide coated, antibody 10 µg/ml
[2] = target: M2 expressed on A/HK/8/68 infected MDCK cells (influenza A virus A/HK/8/68); test: cell-based ELISA, infected MDCK cells
NM14 (influenza A virus) = test: ELISA, peptide coated, antibody 10 µg/ml
M12 (influenza A virus) = test: ELISA, peptide coated, antibody 10 µg/ml

Row | Binder | ELISA (OD450) (NM16 (influenza A virus)) | ELISA (OD450) [1] | ELISA (OD450) (NM17 (influenza A virus)) | ELISA (OD450) (NM13 (influenza A virus)) | ELISA (OD450) (CM13 (influenza A virus)) | ELISA (OD450) (NM11 (influenza A virus)) | ELISA (OD450) (CM16 (influenza A virus)) | ELISA (OD450) (CM17 (influenza A virus)) | ELISA (OD450) (NM12 (influenza A virus)) | ELISA (OD450) (CM14 (influenza A virus)) | ELISA (OD450) (CM15 (influenza A virus)) | ELISA (OD450) (CM12 (influenza A virus)) | EC50 [2] | ELISA (OD450) (NM14 (influenza A virus)) | ELISA (OD450) (M12 (influenza A virus))
1 | B1 | 1.04 OD450 | 0.51 OD450 | 0.99 OD450 | 0.13 OD450 | 0.08 OD450 | 0.09 OD450 | 0.09 OD450 | 0.12 OD450 | 0.12 OD450 | 0.08 OD450 | 0.09 OD450 | 0.08 OD450 | 0.229 µg/mL | – | –
2 | B2 | – | – | – | 2.41 OD450 | 0.11 OD450 | – | 0.76 OD450 | 2.78 OD450 | 0.12 OD450 | 0.1 OD450 | 0.11 OD450 | 0.1 OD450 | – | 2.49 OD450 | 2.71 OD450
